How the values were obtained:
[1] = biological target: EGFR kinase domain I682Q mutant with N-terminal His tag and linker (human) (UniProt P00533); test: anisotropy
[2] = biological target: EGFR kinase domain L834R mutant (human) (UniProt P00533); test: cell-based or functional assay
[3] = biological target: wild-type EGFR kinase domain (residues 672-998 of human EGFR) with N-terminal 6-His tag, linker and TEV site (human) (UniProt P00533); test: cell-based or functional assay

30-residue fluorescein-labelled MIG6 peptide (residues 334-363), sequence (Q9UJM3 334-363): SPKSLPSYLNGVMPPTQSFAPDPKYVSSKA

| IC50, inhibition of kinase activity in solution [2] [µM] | Substance | other results |
| --- | --- | --- |
| – | 30-residue fluorescein-labelled MIG6 peptide (residues 334-363) (from UniProt Q9UJM3 334-363) | Kd [1]: 18.3 µM |
| 0.2 | MIG6(segments 1-2) peptide (residues 336-412) (from UniProt Q9UJM3 336-412) | – |
| – | 40-residue MIG6 peptide (residues 325-364) (from UniProt Q9UJM3 325-364) | IC50, inhibition of activated EGFR kinase [3]: 10 µM |
| 5 | MIG6(segments 1-2) peptide (residues 336-412) bearing Y358A (from UniProt Q9UJM3 336-412) | – |
